This assay deals with human IL-28 receptor on transfected 293 HEK cells (IL-28 receptor alpha subunit with endogenous CRF2-4) (human). In words: cell-based or functional assay.
human IL-28 receptor on transfected 293 HEK cells (IL-28 receptor alpha subunit with endogenous CRF2-4) (human), sequence (Q8IU57 21-520): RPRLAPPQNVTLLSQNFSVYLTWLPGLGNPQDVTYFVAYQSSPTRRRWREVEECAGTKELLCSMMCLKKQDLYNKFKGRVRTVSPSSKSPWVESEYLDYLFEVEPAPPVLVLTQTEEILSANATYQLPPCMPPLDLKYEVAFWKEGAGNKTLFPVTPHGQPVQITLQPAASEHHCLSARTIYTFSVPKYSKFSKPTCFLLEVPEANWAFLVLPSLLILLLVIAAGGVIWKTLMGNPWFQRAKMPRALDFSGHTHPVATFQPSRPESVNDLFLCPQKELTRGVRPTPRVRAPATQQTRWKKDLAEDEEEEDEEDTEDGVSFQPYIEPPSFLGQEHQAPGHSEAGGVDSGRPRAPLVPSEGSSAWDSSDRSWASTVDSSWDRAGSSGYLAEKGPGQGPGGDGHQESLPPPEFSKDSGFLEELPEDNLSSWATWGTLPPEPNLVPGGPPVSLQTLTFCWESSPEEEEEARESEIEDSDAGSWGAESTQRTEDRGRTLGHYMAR

In the case of “zcyto10 (from UniProt Q9NYY1 25-176) (ligand)”, the ISRE Signaling of Transfected 293 Cells Following Class II Cytokine Stimulation (Fold Induction), ISRE-Luc./IL-28R, Zcyto10 125 ng/ml (fold induction) amounted to 1.
Regarding “huIL10 (from UniProt P22301 19-178) (ligand)”, the ISRE Signaling of Transfected 293 Cells Following Class II Cytokine Stimulation (Fold Induction), ISRE-Luc./IL-28R, HuIL10 100 ng/ml (fold induction) amounted to 0.5.

Values taken from patent publication US7351689.
